Assay results from the DeepSol protein solubility set.

experiment: soluble on expression in E. coli; label from the status in PepcDB or PDB records

Sequence | soluble on expression in E. coli
PRAAGHSEEVLEREASFSLTTIDGEVISLNNVGGDVVILWFMAAWCPSCVYMADLLDRLTEKYREISVIAIDFWTAEALKALGLNKPGYPPPDTPEMFRKFIANYGDPSWIMVMDDGSLVEKFNVRSIDYIVIMDKSSNVLYAGTTPSLGELESVIKSVQGG | soluble
MEDEHSRQAYVDQLGLLEEGADEVFEEILAAATSYFQTPIALISILDHQRQWFRASIGLDIRQTPRRDSFCAYAILGKGVFEVADATLDPRFRDNPYVQGEPRIRFYAGAPLATAEGLNLGSLCVIDREPRGPLAERDVAMLEHFARLVMARIHTLRSTNYIDEPTGLYNRLRLQEDVSLRLQRDGALTVIAADLLPLALLNTIIRTLGYPFSNDLMLEARDRIRAELPDFTLYKISPTRFGLLLPRQQQEETESVCLRLLRAFESPVVCRGIPIKANVGLGVLPLADDTLDGDQDWLRLVVSAADDARDRGVGWARYNPPLDQAQQRAFTLLTSLSQAIGTEEGFHLVYQPKIDLPTGRCTGVEALLRWRHPQLGFVSPAEFVPLAEKTALMRPLSDWVLRHAMAQLAQWNARNIPLRLAINVSASDMEDSSFLEEAVRLAKTYDIDLSALELEFTESVLIRDASAVGSVLLRARELGMGIAVDDFGTGYSNWTYLRDLPITAIKLDQSFTRDLAGSPKAQSVTQAVIGLASQLGYRVVAEGIETHDTFHLLQAWGCHEGQGYLIAQPMLPEQLEDWLRRLEHHHHHH | not soluble
MNVYFLGGGNMAAAVAGGLVKQGGYRIYIANRGAEKRERLEKELGVETSATLPELHSDDVLILAVKPQDMEAACKNIRTNGALVLSVAAGLSVGTLSRYLGGTRRIVRVMPNTPGKIGLGVSGMYAEAEVSETDRRIADRIMKSVGLTVWLDDEEKMHGITGISGSGPAYVFYLLDALQNAAIRQGFDMAEARALSLATFKGAVALAEQTGEDFEKLQKNVTSKGGTTHEAVEAFRRHRVAEAISEGVCACVRRSQEMERQYQ | soluble
MHHHHHHGHNSNLQDILAANAKWASQMNNIQPTLFPDHNAKGQSPHTLFIGCSDSRYNENCLGVLPGEVFTWKNVANICHSEDLTLKATLEFAIICLKVNKVIICGHTDCGGIKTCLTNQREALPKVNCSHLYKYLDDIDTMYHEESQNLIHLKTQREKSHYLSHCNVKRQFNRIIENPTVQTAVQNGELQVYGLLYNVEDGLLQTVSTYTKVTPK | soluble
MGSDKIHHHHHHMTQKLPRQATASEESLMRIFTVPEDAESTLSIIEQKLSEDLAGFLGDSIAALEKPLSEIETDFQAFKIPTQPRFVSDYTDEIMQNLVAHSVHTSAPSFIGHMTSALPYFVLPLSKMMVGLNQNLVKIETSKAFTPLERQVLGMMHHLIYAQNTDFYQSWMHSANHSLGAFCSGGTVANITALWIARNQLLKADGEFKGVTREGLLKALRYYGYDDLAILVSERGHYSLGKAVDLLGIGRDNIISIPTDSHNKVDIAKMRKAALELARKNIKVLAIVGVAGTTETGNVDPLIELAALAKELNCHFHVDAAWGGASLLSNKYRHLLAGIELADSVTIDAHKQMYVPMGAGMVLFKNPEFAHAIAHHAEYILRRGSKDLGSQTLEGSRPGMAMLVHACLQIIGLDGYEILINNSIEKARYFAEQIKAHRDFELVTEPELCLLTYRYVPAKVQAAMQVAIEQGDTAKLARFNELLDGLTQFIQKHQREQGKSFVSRTRISPARYFRQATVVFRVVLANPLTSHDILNQVLVEQSEIAALDKEFLPALLAMVAE | not soluble
ATRVQAAQKEPASDVSDKLEQIREEIAKDPQSVFKYITISPVKKDDAIIGYRVSPGRDAALFNDVGLEPGDIAVQLNGIDLSDPSSSVQLMQVMSDPQELNLTVERDGQQYDIYIQL | not soluble
MCTALSPKVRSGPGLSDMHQYSQWLASRHEANLLPMKEDLALWLTNLLGKEITAETFMEKLDNGALLCQLAETMQEKFKESMDANKPTKNLPLKKIPCKTSAPSGSFFARDNTANFLSWCRDLGVDETCLFESEGLVLHKQPREVCLCLLELGRIAARYGVEPPGLIKLEKEIEQEETLSAPSPSPSPSSKSSGKKSTGNLLDDAVKRISEDPPCKCPNKFCVERLSQGRYRVGEKILFIRMLHNKHVMVRVGGGWETFAGYLLKHDPCRMLQISRVDGKTSPIQSKSPTLKDMNPDNYLVVSASYKAKKEIKLEHHHHHH | not soluble
MKSTSMNTNKRFQNVNQWKLHASAAAYLAGWKVVRLLPEPVAYRLFSWAAVIASRRGRGMDQLRRNLTRVVGAESVDRALVKRSMQSYARYWCEAFRLSVIARDPDVIHRVDAHAVGVEQVNPHSPMIIVLPHSGNWDLIGMYFVKKVGTFTTVAERVKPESLFRAFVNYRRSLGFEVLPLTGSETSPYSVLLQRVREGRTVCLLGERDLTSHGVEVEFFGETTRMPAGAVKLALDSGAPLHVAHTWFEGDDWGLSLSEPVEITDVKSGVQAIAQIMEKNIKAHPQDWHLLQPLWINDLDRRRYESGLQPKND | not soluble
MRQSSQARETTETKIKLNLQLDESTNVSIQTGVGFFDHMLTLFARHGRFGLQVEAEGDVFVDAHHTVEDVGIVLGNCLKEALQNKEGINRYGSAYVPMDESLGFVAIDISGRSYCVFQGELTNPKLGDFDTELTEEFFRAVAHAANITLHARVLYGSNTHHKIEALFKAFGRALREAVEKNANITGVNSTKGML | not soluble
MAQYRPDELARYAQRVMDWLHPDGDLTDTERARKRGITLSNQQYDGMSRLSGYLTPQARATFEAVLAKLAAPGATNPDDHTPVIDTTPDAAAIDRDTRSQAQRNHDGLLAGLRALIASGELGQHNGLPVSIVVTTTLTDLQTGAGKGFTGGGTLLPMADVIRMTSHAHHYSPASGRYPQAIFDHGTPLALYHTKRLASPAQRIMLEHHHHHH | soluble
MGSDKIHHHHHHMNLKLDHIIHYLHQLESFKFPGEILELQNGGRHHHLGTFNQIAPIKNSYIELLDVENESKLSNIAKTEEGRVSFATKIVQDHFKQGFKGICFRTKDINQVKSTLENRGVDVIGPIDMERENKKGHQIRWRLLYIANPDYTVKPPFFIEWDNNKKQNLSQIHNFNLSSFKIKEVIITSTQRETTVSLWKEWYNLKIVNETATSTDLKLETDEVIYKIEDGKDSGFHTLIMTDINATAPYSIFIRGAKYRFEPPN | not soluble
MKKIATATIATAGFATIAIASGNQAHASEQDNYGYNPNDPTSYSYTYTIDAQGNYHYTWKGNWHPSQLNQDNGYYSYYYYNGYNNYNYNNYNNGYSYNNYSRYNNYSNNNQSYNYNNYNSYNTNSYRTGGLGASYSTSSNNVQVTTTMAPSSNGRSISSGYTSGRNLYTSGQCTYYVFDRVGGKIGSTWGNASNWANAAARAGYTVNNTPKAGAIMQTTQGAYGHVAYVESVNSNGSVRVSEMNYGYGPGVVTSRTISASQAAGYNFIHLEHHHHHH | not soluble
MTIKKYKTALSGMFPEEIQSFCGLKEKFRAQQIFHWIASGVNSFDEMTNLSFDMRSKLKNDFSLFSTKIKEALKDKDGTIKLAVELYDGSVIETVLLTDKAKRKTACVSCQAGCPMKCAFCKTGQIGFLRNLSASEIVEQFLHLEREAGSLDNIVFMGMGEPMLNLPEIDKAINILAHPKGRNLSKRRITISTSGLCKGIYEMADKGPEVRLAVSLTTADETLRSELMPITKTNSLDELKQAIKYFNSKSNKRVTLELALMKGLNTDKKAAQEVIEFAKGLECFINLIPWNPVEGLNFKTPSETEVRTFETYLKKAGLNISTRQKRGQSIGGACGQLGSTAARSNRF | not soluble
ELYVVASPKSPIMEINKEQLSALYLGRNRVVGNTYINQVLDRSGTVRQRFFLQVTNMQESQINAYWAKLKFSGRLRAPESVVSEQELIAKLEENPFSIGYTDQVPSDALKVLLVL | not soluble
NPGENPKAQKALKQLFDGAQKDDIHLYKISGYRSYPTQVKLYNNYVKRDGKKAADKYSARPGYSEHQTGLTFDVGGVDSDKNLYASFGKTEEGRWIAKNAHNYGFIIRYPKNKESITGYQYEPWHLRYLGKKKATKVYKSGETLEEFVGLK | not soluble
